Data taken from patent US20180135019A1.
Values belong to the substance of their own block, whether it stands above or below them.

What was measured:
[1] = biological target: STRO-1 monoclonal antibody; experiment: competition: STRO-1 pre-incubated with GST-L393, flow cytometry on UE7T-13 cells, relative to pre-incubation with GST alone
[2] = biological target: heat shock cognate 70 (HSC70; HSPA8) on the surface of UE7T-13 cells (human) (UniProt P11142); experiment: flow cytometry on UE7T-13 cells, hybridoma supernatant, fluorescein anti-mouse IgM
Sequence of UniProt P11142 (P11142 2-646 limits assumed): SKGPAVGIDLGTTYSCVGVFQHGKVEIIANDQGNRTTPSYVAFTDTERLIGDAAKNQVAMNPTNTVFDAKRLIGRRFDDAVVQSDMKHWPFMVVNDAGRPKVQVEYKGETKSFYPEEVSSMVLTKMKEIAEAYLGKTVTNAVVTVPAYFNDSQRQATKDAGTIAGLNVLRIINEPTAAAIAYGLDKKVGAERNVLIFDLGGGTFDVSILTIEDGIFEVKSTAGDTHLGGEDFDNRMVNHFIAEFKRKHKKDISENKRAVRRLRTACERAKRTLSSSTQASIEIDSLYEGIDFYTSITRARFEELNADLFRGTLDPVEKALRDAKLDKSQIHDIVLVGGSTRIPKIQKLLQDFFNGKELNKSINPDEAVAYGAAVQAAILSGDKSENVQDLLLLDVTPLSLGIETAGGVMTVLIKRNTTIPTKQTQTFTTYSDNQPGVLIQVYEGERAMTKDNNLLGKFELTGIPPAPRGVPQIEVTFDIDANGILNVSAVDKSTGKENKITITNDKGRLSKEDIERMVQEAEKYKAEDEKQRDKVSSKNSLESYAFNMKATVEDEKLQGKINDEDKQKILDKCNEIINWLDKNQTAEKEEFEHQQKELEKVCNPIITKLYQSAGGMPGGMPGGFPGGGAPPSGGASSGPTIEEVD

[3] = biological target: STRO-1 monoclonal antibody; experiment: competition: STRO-1 pre-incubated with rh-HSC70 overnight at 4 C, flow cytometry of STRO-1 on UE7T-13 cells

- reduction in antibody binding [1]: 60%
Substance: GST-L393 (N-terminal Glutathione S-transferase fusion of the first 393 amino acids of human HSC70) (from UniProt A2Q0Z1 1-393)

- MFI [2]: 17200
Substance: STRO-1 monoclonal antibody

- reduction in MFI [3]: 30%
Substance: recombinant human HSC70 (Enzo) (from UniProt A2Q0Z1 1-646)
